B1: His-tagged lamin A/C 1-300 fragment, wild type (domain or fragment, human, UniProt P02545 1-300, looked up)
chain: METPSQRRATRSGAQASSTPLSPTRITRLQEKEDLQELNDRLAVYIDRVRSLETENAGLRLRITESEEVVSREVSGIKAAYEAELGDARKTLDSVAKERARLQLELSKVREEFKELKARNTKKEGDLIAAQARLKDLEALLNSKEAALSTALSEKRTLEGELHDLRGQVAKLEAALGEAKKQLQDEMLRRVDAENRLQTMKEELDFQKNIYSEELRETKRRHETRLVEIDNGKQREFESRLADALQELRAQHEDQVEQYKKELEKTYSAKLDNARQSAERNSNLVGAAHEELQQSRIRID
notes: lamin A/C, human, residues 1-300 (N-terminal head, coil 1a, L1, coil 1b and following residues); pProEx-HTa vector: a TEV protease cleavage site stands between the His-tag and the lamin residues; also called lamin 300 fragment; His-lamin 1-300 WT; source: E. coli BL21 (DE3), purified (cobalt-Talon, HiTrap Q, SEC); not shown: His-tag, N-terminal, kept
B2: His-tagged lamin A/C 1-300 fragment, L59R (domain or fragment, human, UniProt P02545 1-300, looked up)
chain: METPSQRRATRSGAQASSTPLSPTRITRLQEKEDLQELNDRLAVYIDRVRSLETENAGRRLRITESEEVVSREVSGIKAAYEAELGDARKTLDSVAKERARLQLELSKVREEFKELKARNTKKEGDLIAAQARLKDLEALLNSKEAALSTALSEKRTLEGELHDLRGQVAKLEAALGEAKKQLQDEMLRRVDAENRLQTMKEELDFQKNIYSEELRETKRRHETRLVEIDNGKQREFESRLADALQELRAQHEDQVEQYKKELEKTYSAKLDNARQSAERNSNLVGAAHEELQQSRIRID
notes: lamin A/C, human, residues 1-300 with the CDM1A mutation L59R; pProEx-HTa vector: a TEV protease cleavage site stands between the His-tag and the lamin residues; also called His-lamin 1-300 L59R; lamin 300 L59R; source: E. coli BL21 (DE3), purified (cobalt-Talon, HiTrap Q, SEC); not shown: His-tag, N-terminal, kept
B3: His-tagged lamin A/C 1-300 fragment, L35V (domain or fragment, human, UniProt P02545 1-300, looked up)
chain: METPSQRRATRSGAQASSTPLSPTRITRLQEKEDVQELNDRLAVYIDRVRSLETENAGLRLRITESEEVVSREVSGIKAAYEAELGDARKTLDSVAKERARLQLELSKVREEFKELKARNTKKEGDLIAAQARLKDLEALLNSKEAALSTALSEKRTLEGELHDLRGQVAKLEAALGEAKKQLQDEMLRRVDAENRLQTMKEELDFQKNIYSEELRETKRRHETRLVEIDNGKQREFESRLADALQELRAQHEDQVEQYKKELEKTYSAKLDNARQSAERNSNLVGAAHEELQQSRIRID
notes: lamin A/C, human, residues 1-300 with the EDMD mutation L35V; pProEx-HTa vector: a TEV protease cleavage site stands between the His-tag and the lamin residues; also called His-lamin 1-300 L35V; lamin 300 L35V; source: E. coli BL21 (DE3), purified (cobalt-Talon, HiTrap Q, SEC); not shown: His-tag, N-terminal, kept
B5: His-tagged lamin A/C 1-300 fragment, I63S (domain or fragment, human, UniProt P02545 1-300, looked up)
chain: METPSQRRATRSGAQASSTPLSPTRITRLQEKEDLQELNDRLAVYIDRVRSLETENAGLRLRSTESEEVVSREVSGIKAAYEAELGDARKTLDSVAKERARLQLELSKVREEFKELKARNTKKEGDLIAAQARLKDLEALLNSKEAALSTALSEKRTLEGELHDLRGQVAKLEAALGEAKKQLQDEMLRRVDAENRLQTMKEELDFQKNIYSEELRETKRRHETRLVEIDNGKQREFESRLADALQELRAQHEDQVEQYKKELEKTYSAKLDNARQSAERNSNLVGAAHEELQQSRIRID
notes: lamin A/C, human, residues 1-300 with the EDMD mutation I63S; pProEx-HTa vector: a TEV protease cleavage site stands between the His-tag and the lamin residues; also called His-lamin 1-300 I63S; lamin 300 I63S; source: E. coli BL21 (DE3), purified (cobalt-Talon, HiTrap Q, SEC); not shown: His-tag, N-terminal, kept
B6: lamin A/C 250-400 fragment, wild type, tag-free (domain or fragment, human, UniProt P02545 250-400, looked up)
chain: AQHEDQVEQYKKELEKTYSAKLDNARQSAERNSNLVGAAHEELQQSRIRIDSLSAQLSQLQKQLAAKEAKLRDLEDSLARERDTSRRLLAEKEREMAEMRARMQQQLDEYQELLDIKLALDMEIHAYRKLLEGEEERLRLSPSPTSQRSRG
notes: lamin A/C, human, residues 250-400 (C-terminal part of coil 2); His-tag cleaved with TEV protease; also called lamin 250-400; coil 2 fragment; source: E. coli BL21 (DE3), purified (cobalt-Talon, TEV cleavage, HiTrap Q, SEC); not shown: His-tag, N-terminal, cleaved

Legend:
[1] = target: the molecule itself; assay: not stated; purified lamin 300 fragments in solution; how the dimeric state was found is not told
[2] = target: T1, His-tagged lamin A/C 1-300 fragment, Y45C (human), P02545; assay: ITC; His-tagged lamin 300 fragments in the cell (25 uM), TEV-cleaved lamin 250-400 in the syringe (180 uM); PBS; 25 °C; 19 injections of 2 uL; details: remark: other sources report otherwise
T1 chain: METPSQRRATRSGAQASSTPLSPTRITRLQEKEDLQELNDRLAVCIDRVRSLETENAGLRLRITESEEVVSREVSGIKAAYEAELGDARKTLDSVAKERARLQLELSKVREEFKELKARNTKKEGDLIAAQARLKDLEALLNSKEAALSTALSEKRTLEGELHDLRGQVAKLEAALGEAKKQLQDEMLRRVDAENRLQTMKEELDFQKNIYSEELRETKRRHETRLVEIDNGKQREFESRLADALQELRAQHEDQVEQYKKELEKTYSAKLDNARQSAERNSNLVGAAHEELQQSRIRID

[3] = target: B1; assay: pull-down; His-tagged lamin 1-300 variants on Ni-NTA resin as bait, tag-free lamin 250-400 as prey; 20 mM Tris-HCl pH 8.0 with 50 mM or 150 mM NaCl; room temperature 30 min; SDS-PAGE; details: both partners purified
[4] = target: B2; assay: ITC; His-tagged lamin 300 fragments in the cell (25 uM), TEV-cleaved lamin 250-400 in the syringe (180 uM); PBS; 25 °C; 19 injections of 2 uL; details: both partners purified
[5] = target: B5; assay: as above; details: both partners purified
[6] = target: B3; assay: as above; details: both partners purified
[7] = target: B6; assay: pull-down; His-tagged lamin 1-125 variants on Ni-NTA resin as bait, lamin 250-400 as prey; 20 mM Tris-HCl pH 8.0 with 50 mM NaCl; SDS-PAGE; details: both partners purified

B1
stoichiometry N [1]: 2

B2
stoichiometry N [1]: 2

B3
stoichiometry N [1]: 2

B4: His-tagged lamin A/C 1-300 fragment, Y45C (domain or fragment, human, UniProt P02545 1-300, looked up)
chain: METPSQRRATRSGAQASSTPLSPTRITRLQEKEDLQELNDRLAVCIDRVRSLETENAGLRLRITESEEVVSREVSGIKAAYEAELGDARKTLDSVAKERARLQLELSKVREEFKELKARNTKKEGDLIAAQARLKDLEALLNSKEAALSTALSEKRTLEGELHDLRGQVAKLEAALGEAKKQLQDEMLRRVDAENRLQTMKEELDFQKNIYSEELRETKRRHETRLVEIDNGKQREFESRLADALQELRAQHEDQVEQYKKELEKTYSAKLDNARQSAERNSNLVGAAHEELQQSRIRID
notes: lamin A/C, human, residues 1-300 with the EDMD mutation Y45C; pProEx-HTa vector: a TEV protease cleavage site stands between the His-tag and the lamin residues; also called His-lamin 1-300 Y45C; lamin 300 Y45C; source: E. coli BL21 (DE3), purified (cobalt-Talon, HiTrap Q, SEC); not shown: His-tag, N-terminal, kept
stoichiometry N [1]: 2

B5
stoichiometry N [1]: 2

B6
fold decrease of the interaction (KD) against wild type [2]: 5 fold | binding result [3]: binds | fold increase of the interaction (KD) against wild type [4]: ~56 fold | fold increase of the interaction (KD) against wild type [5]: ~2 fold | fold decrease of the interaction (KD) against wild type [6]: ~2 fold

B7: His-tagged lamin A/C 1-125 fragment, I63S (domain or fragment, human, UniProt P02545 1-125, looked up)
chain: METPSQRRATRSGAQASSTPLSPTRITRLQEKEDLQELNDRLAVYIDRVRSLETENAGLRLRSTESEEVVSREVSGIKAAYEAELGDARKTLDSVAKERARLQLELSKVREEFKELKARNTKKEG
notes: pProEx-HTa vector: a TEV protease cleavage site stands between the His-tag and the lamin residues; source: E. coli BL21 (DE3), purified (cobalt-Talon, HiTrap Q, SEC); not shown: His-tag, N-terminal, kept
binding result [7]: binds

B8: His-tagged lamin A/C 1-125 fragment, L59R (domain or fragment, human, UniProt P02545 1-125, looked up)
chain: METPSQRRATRSGAQASSTPLSPTRITRLQEKEDLQELNDRLAVYIDRVRSLETENAGRRLRITESEEVVSREVSGIKAAYEAELGDARKTLDSVAKERARLQLELSKVREEFKELKARNTKKEG
notes: pProEx-HTa vector: a TEV protease cleavage site stands between the His-tag and the lamin residues; also called His-lamin 1-125 L59R; source: E. coli BL21 (DE3), purified (cobalt-Talon, HiTrap Q, SEC); not shown: His-tag, N-terminal, kept
binding result [7]: binds

B9: His-tagged lamin A/C 1-125 fragment, Y45C (domain or fragment, human, UniProt P02545 1-125, looked up)
chain: METPSQRRATRSGAQASSTPLSPTRITRLQEKEDLQELNDRLAVCIDRVRSLETENAGLRLRITESEEVVSREVSGIKAAYEAELGDARKTLDSVAKERARLQLELSKVREEFKELKARNTKKEG
notes: as for B7
binding result [7]: binds

From article PMC7824274, “Separation of Coiled-Coil Structures in Lamin A/C Is Required for the Elongation of the Filament” (Cells, 2020)
